Test results taken from the DeepSol protein solubility set.

Experiment: soluble on expression in E. coli; label from the status in PepcDB or PDB records

Sequence	soluble on expression in E. coli
MAVVRRAVAARGLQMIAKPLTVVPGFDVWPGLLDISAQRALVEAVLAGAEQAPFSNYRTAYGKPMSVAMTALGSLGWTSDARGYRYVDRHPETGRPWPDMPPALLDLWTVLGDPETPPDSCLVNLYRDGARMGLHQDRDEADPRFPVLSISLGDTAVFRIGGVNRKDPTRSLRLASGDVCRLLGPARLAFHGVDRILPGSSSLVPGGGRINLTLRRARTALEHHHHHH	not soluble
MGHHHHHHSHSMGVRSMATFVKTADVSILIDPGVSLAPKRYRLPPHRIEIERMNQKWEEIKEMMKKAEVAIITHYHYDHHDPNEVEIFSGKKLLLKHPTEKINRSQKGRAAYFLEQLKSVDVEIDYCDGKSYEFGNTVVELSKPVFHGADSRLGFVVEVYVEDGKSSFLFSSDVEGPNNEEQLAFMLEKSAEVVFIDGPMTYMLGYRFSQKSFESSVENLKRLIAEDVKTLVLDH	soluble
MGSDKIHHHHHHMKQFQIVGIGNALVDVLSHCDDAFLAENGIAKGIMQLIDMGRAVDLYGRIGPAQEISGGSAANTIAGIAQLGGRTAYVGKVCDDQLGAIFAHDLRAQGAVYETPMAPKGGAQETGRCIILVSPDGERSMNTCLGWSEFLTPDDIDEAQMASTEWIYLEGYRFDGPESHAAFAKAIAACRGAGGRVSLTLSDPFCVERHRDAFRRMIREDVDLLFANRAEILSMYRTEDFGAALKAAAAEVAIVACTESEKGAHILADGQHWHVPALPTQIVDATGAGDLFAGAFLWGLTHGHGYETAGRMGCIAASEVISHLGARPEADLRALFRAQGVL	not soluble
MAHHHHHHMERSLYYTPQLLWLQVMDRMPYEFTHYFVSSPPPHHEAMLSGIREQYGRPYSAAKPFDVELLGRLWNGHSRVMFATDNLVFSAVDHSVSDRWKEMGFQGTDPSTDFRGAGIFGLAQLVYLVEHHPEEWSAILTPDFMAAAAGLNVTMRLATMLGINSSLNQLSSSVLSKYSAREARLQLCRFIFDPSVDVATQRLSEVYCFAMRLLHYRWMRSTRNIMEFNQQLSSMYTELDRLLFLCNTLEELCSLL	not soluble
MSLEDSEQIQILQHLISINSVNDHEADVAAYIQQLFADHGITSQVIPYADGRANIIAEIGDTTSDQVFALAGHLDTVATGDVADWKFDPFSAHIVDNQLYGRGAADMKSGLAAMVITLINLADQQTPLTGRLRFIGTVGEENGAMGSRMLTEKGVADDLTAMVIGEPTGGNLVYAHNGSLNYHVYSRGVGAHSSMPEKGINAITNLIKYVTAEATAFDDAPVSPELGPLVHSVTVFNGGEQVNSIPAKAELQGNIRPIPEFDNTAVIHRLHETVDRLNQEPGVDLALHVDYSFKPIISAKDSPLVQTTKAIADQEFGHAIDLQVIHGATDASEFTKSSHDFPVIVYGAGKWDAAHALNESVDLDEFRHVQHVYQQLVEKFLSEGHHHHHH	soluble
MDDSREESQFIVDDVSKTIKEAIETTIGGNAYQHDKVNNWTGQVVENCLTVLTKEQKPYKYIVTAMIMQKNGAGLHTASSCYWNNDTDGSCTVRWENKTMYCIVSVFGLAV	soluble
AIAADTVDGKKEEADYKRLHNFPLIRHTDMPEEMRVETMELCVTACEKFATNNESAAKMIKESMDKKFGSSWHVVIGEGFGFEITHEVKNLLYMFFGGSLAVCVWKCS	soluble
MQVSKRKSLCKICGNPAFGNHFGVLSCRACAAFFRRTNVDGETFCPIGNCKIDKHGKFYCKKCRLRICLEAGMDANKFQHDRDLISTSTSESSDSSGSFSFSQRSKVPKSMANFLGRPAFILSCEPDKASKVKTIVDVTFLINQAFDIFGNVDRKRFSSNSNLGRMTKKFEDLQNEKSSNLSTIKVLGLKESMIFWEQDFLRTARWLSHFDEFQELPLSIRMQILKVAWILWGRLDKLVKTANERKNQQLNQNFYMIGKDVGIDIGNFEVDVSWCTNYSKEQLAYYLDCHHDEPFNIIVDAISDLKPSDMELNFMLLELCLAHAGKQHQGDVLMFTDRLLEVVSNELHDYYQSEQISNYSSRITKMMKINNLIRRNLFERLERQAVAKVFNIISVHFSHPDMFCNAGF	not soluble
MAHHHHHHMSSTSTTHPQLLLQQSKVKYLMKVCRPLCQFTQKCNRGSWVERTFGAERKKASSASEDNDLLSMHLPFSSDTAPPCGYSTTEAVRLISLPYHPHVYAYCLFESRLIFERAVLHGAIAPNVKPSQFFVHPISVMRHPEKFKLFFGEERSDVLLRLLVDLLGEYDGDDRSVVQKCRAKGVSNENWVPFLRGLGLCLAMGDIASSQATFVMEDCITGGGADCGLSLPGSYEKRGSVAAELLMEASVELGSLTLANLSLSLYRQFLPEVPLTASKKVTICTTRCERRFLEWNQRCLKTGPRR	not soluble
MSLDKGTVDGRLYQLFKTCIQGINSPLSSVALRSDFYILANHYLSRVLSDQVGSEKVLQDLRLGSKKLVEIIWNDVVYGEGTSRVTGILLLDSLIQLANRSKENFILDSLMKTTRLLLIIRSLKNTDALLNSTTEHINIDDLLYELTAFKATVFFLIRVAETRGGASALIENNLFRIIAELSFLKVDPDLGLDLMFDEVYVQNSKFLKVNVTLDNPLLVDKDANGVSLFELIVPIFQLISAVLVSMGSSNKAVVQTVKGLLNTYKRLVIGIFKRDLLREKEDKKNSSDPNNQSLNEMVKLIVMLCTLTGYQNNDEGHHHHHH	not soluble
KQPKKSQPDLFYATDGTPILVGKNNLQNDQLTLRTAKKTDYWLHAKDIPGSHVIIRDAHPSEETLTEAALLAAYFSKYRLSSQVPVDYVQVKHVHK	not soluble
MTAASIDRELVPWSDPEFRNNPYPWYRRLQQDHPVHKLEDGTYLVSRYADVSHFAKLPIMSVEPGWADAGPWAVASDTALGSDPPHHTVLRRQTNKWFTPKLVDGWVRTTRELVGDLLDGVEAGQVIEARRDLAVVPTHVTMARVLQLPEDDADAVMEAMFEAMLMQSAEPADGDVDRAAVAFGYLSARVAEMLEDKRVNPGDGLADSLLDAARAGEITESEAIATILVFYAVGHMAIGYLIASGIELFARRPEVFTAFRNDESARAAIINEMVRMDPPQLSFLRFPTEDVEIGGVLIEAGSPIRFMIGAANRDPEVFDDPDVFDHTRPPAASRNLSFGLGPHSCAGQIISRAEATTVFAVLAERYERIELAEEPTVAHNDFARRYRKLPIVLS	soluble
MSLGLFSKKPPCPICGGKIPLILPSKIEDEYICNTCYNKIDMGADQENHLTMQGLREYLAFYEQNQRLKEQFVISERIDFGLWDTKIIFDHRNKLFCMSKNPDKTVFEGQQLKSFTIKEDSTPLFEGSAAGIRRYASTVTERTMAMAPQIAQSAANRRMARTLDRLDDGKVNNSAPVQYFDIPEPFQAFNVELHFDHPYWTVLQCDMDGPRFDNSHPDVNNYLRSYQQSIEEIEKLVAALRTVAFPGAAEQSVGLGPVGMQAAYTTMAPPTDAIEEIKKYKALMEDGIISQQEFEAKKKQLLGIEGHHHHHH	soluble
MLIVLPPSETKAVGGKNPAIDFDSLHFPTLNPIRKEIAHDLARLDISQAQEILKLSQKLLPEAQRNIELFQSPTMPAVLRYTGVLYDALDATSLPSSTWEHLAIGSALFGVVMANDNIPHYRLSGTTKLPCADASVPTLKRRWGNAISTALSDTNEVILDLRSGTYQQLGKVKHAITVRVESEDSDGKRSVISHFNKHYKGQLARALLLHDVTPDPDHAIEDLIGMTQECGFAVEHSKPHELTVVITQ	not soluble
MFGNYISTSPEKIIMLALRIMQGIAKTLAEHVLDLKHSPLSKQAMKRQTLRLWAEYSLGTINKIIDMKSGPSNQSAEEMEFIRRLILIRRDIHSQLHSVGIDINDGTGD	not soluble
MALANFDGPFDLLLQLIHSHKLDITEVALAQVTDEFIAYTKTLSSSAEDLDEVTEFLVVASTLLDLKAARLVPRGEVDSEEDLALLETRDLLFARLLQYRAYKQVADLFADWQRDAARAYPATLSLEEHHANLLPEVKIGKNADEFAELAAAVFRPKPDHVDTGHIHQVAVSVPEQAGRILNTLKVAGENTWVTFGALIADAELNMIVVGRFLALLELYKARAIGIEQPEPLQDMSVAWTGLDVDPAVVAASNWE	soluble
MTDLVAVWDVALSDGVHKIEFEHGTTSGKRVVYVDGKEEIRREWMFKLVGKETFFVGAAKTKATINIDAISGFAYEYTLEIDGKSLKKYMENRSKTTSTWVLRLDGEDLRVVLEKDTMDVWCNGQKMETAGEFVDDGTETHFSVGNHGCYIKAVSSRKRKEGIIHTLIVDNREIPELTQ	soluble
SIMTVRTTHTEVEVHAGGTVELPCSYQLANDTQPPVISWLKGASPDRSTKVFKGNYNWQGEGLGFVESDSYKESFGDFLGRASVANLAAPTLRLTHVHPQDGGRYWCQVAQWSIRTEFGLDAKSVVLKVTGHTPSNNVHVSTAEVVQVDEGNDITMTCPCTDCANANVTWYTGPTFFENYETGTYQPLANKNQFGITWFSSEIAGRASFSGARNLVIRAAKITDAGRVWCELATGQGELDADRSSTILKV	soluble
MASMGVPALFRLLSRKFAKVITPVIEAPTEKLPDGTEIEPDLSLPNPNGVECDNLYLDMNGIVHPCSHPEDRPAPETEDEMMVAVFEYTDRILAMVRPRQLLFIAIDGVAPRAKMNQQRSRRFRSSREAALKEEELQAFIEEAKQQGIPIDENATKKKSWDSNCITPGTPFMDTLAKSLRYYIINKLNSDPCWRNVRFILSDASVPGEGEHKIMEFIRSQRVKPEYDPNTHHVVYGLDADLIMLGLATHEPHFRVLREDVFFQQGSTKKTKEERLGIKRLDDVSETNKVPVKKPFIWLNVSILREYLEVELYVPNLPFPFDLERAIDDWVFFIFFVGNDFLPHLPSLDIRDGAVERLTEIWRASLPHMGGYLTLDGSVNLARAEVILSAVGNQEDDIFKRLKQQEDRRNENYRRRQQRESNQESESYVDNVVIQRSVETQSTEVVTSSKSTSVDTKPPKKTQKIDAPAPVDLVNLSEKTSNRSLGATNRELINNRAANRLGLSREAAAVSSVNKLAASALKAQLVSNETLQNVPLEDSIASSSAYEDTDSIESSTPVVHPIDTKVSNVGQKRKAPDSTEENENTDTVRLYEPGYRERYYEQKFHISPDEPEKIREAVKHYVHGLCWVLLYYYQGCPSWTWYYPYHYAPFAADFKDLASIDVKFELNQPFKPYEQLLGVLPAASKNNLPEKLQTLMTDENSEIIDFYPENFTIDLNGKKFEWQGVALLPFIDENRLLNAVSKIYPQLTEEESKRNEDGSTLLFISEHHPMFSELVKQLYSKKRQGKPLKLSGKMAHGLFGKVNTNDSVIPNVSVQCPIDVTSADALQKYGSIDDNQSISLVFEVPKSHFVHKSMLLRGVKMPNRVLTPEDINQVRAERSFSSRRNNGNSAAALEHHHHHH	soluble
MGLKDQAVTWRRYFHQFPELSDKEFKTTQKIKDILTEHHIRILDLPLATGLVAEVGQGLSCIAVRADIDALPIQELVEQDFKSENEGVMHACGHDIHMASILATAVKLKEIEGTLTGRVKFIFQSAEELGHGAFKIIETHALKDVQAVLGFHNDPSRSVGTFAIKTGAITSAVDRFEFHIKGVGGHAAKPEQCNDPVIVLAQLINSIQSIVSRNLSAFDEAVVTIGQISCGNTWNVIADHAYVQGTVRSFDPVVRKLVETRLQDIADGLAQAYNMKINLNYTHLPGAVMNDEALTHKAIAVAQHVGYKVEMMEQPLTIGEDFSGYSQHFPSVFALIGSHSEYDLHHPQYKPDERILEKVPEYFVEFVKRLLHE	not soluble
MRKRARIIYNPTSGKELFKRELPDALIKLEKAGYETSAYATEKIGDATLEAERAMHENYDVLIAAGGDGTLNEVVNGIAEKPNRPKLGVIPMGTVNDFGRALHIPNDIMGALDVIIEGHSTKVDIGKMNNRYFINLAAGGQLTQVSYETPSKLKSIVGPFAYYIKGFEMLPQMKAVDLRIEYDGNVFQGEALLFFLGLTNSMAGFEKLVPDAKLDDGYFTLIIVEKSNLAELGHIMTLASRGEHTKHPKVIYEKAKAINISSFTDLQLNVDGEYGGKLPANFLNLERHIDVFAPNDIVNEELINNDHVDDNLIEEMAGDPLEHHHHHH	not soluble
